# Measurements reported in paper PMC7525064, “Transcriptome Analysis of Different Tissues Reveals Key Genes Associated With Galanthamine Biosynthesis in Lycoris longituba” (Frontiers in Plant Science, 2020).
# B1: LlOMT (Lycoris longituba O-Methyltransferase) (Lycoris longituba) (protein)
# chain: MGASQDDYALIHKNILHSEDLLKYILETSVYPREHEQLKGLREVTEKHEWSMALVAADEGLFLSMLLKLMNAKRTIEIGVYTGYSLLTTALALPEDGKITAIDVNKSYFEIGLPFIQKAGVEHKINFIESEALPVLDQMLQEMKEEDLYDFAFVDADKPNYANYHERLVKLVRVGGAIVYDNTLWFGTVAFPEYPGLHPEEEECRVSFRNLNKLLAADPRVEISQVSIGDGLTICRRLY
# Substrate: Oc1ccc(CCNCc2ccc(O)c(O)c2)cc1
# Assay: purified protein
# Assay type: biochemical, Lycoris longituba
# Conditions: 200 μM AdoMet, 50 μM-2 mM norbelladine, 30 mM potassium phosphate pH 8.0, 30°C, 2 h
protein,measurement,value
B1,Km,317 ± 17 µM
